Assay results reported in patent US20070248589A1 (GOVERNMENT OF THE UNITED STATES OF AMERICA AS REPRESENTED …, published 2007).

How the values were obtained:
[1] = target: T1, Uba3/AppBP1 protein complex (Mus musculus, UniProt Q8C878); assay: GST pulldown and immunoprecipitation, Uba3 and AppBP1 interaction; assay type: binding; settings: FIG. 4
T1 construct: Myc-tagged, full-length mouse Uba3; host or cells: cell-free: TNT Coupled Reticulocyte Lysate System, 35S-methionine labelled
T1 sequence (Q8C878 22-462 V120X/V142X/I148X/P243X limits assumed): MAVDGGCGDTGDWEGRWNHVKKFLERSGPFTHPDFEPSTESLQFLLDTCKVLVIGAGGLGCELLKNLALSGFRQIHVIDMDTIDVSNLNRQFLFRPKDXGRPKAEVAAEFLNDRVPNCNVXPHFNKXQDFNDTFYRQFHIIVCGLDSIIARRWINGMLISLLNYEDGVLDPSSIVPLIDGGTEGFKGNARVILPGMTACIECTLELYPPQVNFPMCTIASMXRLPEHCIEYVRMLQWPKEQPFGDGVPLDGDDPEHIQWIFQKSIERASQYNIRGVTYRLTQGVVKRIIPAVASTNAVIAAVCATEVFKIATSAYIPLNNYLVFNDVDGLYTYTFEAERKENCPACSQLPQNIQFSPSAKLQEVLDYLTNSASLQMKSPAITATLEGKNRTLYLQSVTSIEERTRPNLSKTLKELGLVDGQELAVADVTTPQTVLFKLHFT
Procedure: To determine whether SPATIAL has an effect on the neddylation pathway, cDNAs for each of the components of the Nedd8 conjugation pathway were obtained from EST depositories (AppBP1, GenBank Accession No. BC00480; Uba3, GenBank Accession No. BC002002). These cDNAs were used to produce radiolabeled proteins by in vitro transcription and translation.
The effect of SPATIAL on the first step of the pathway, the interaction between Uba3 and AppBP1, was tested using a GST pulldown assay
In a typical GST pulldown assay, GST and GST-SPATIAL were prepared from transformed bacterial cultures as previously described (e.g., Ausubel et al., Current Protocols in Molecular Biology, Greene Publishing Associates, updated November 2003, Chapter 20, Analysis of Protein Interactions, Unit 20.2, Affinity Purification of Proteins Binding to GST Fusion Proteins). After purification, GST and GST-SPATIAL proteins were mixed with glutathione-sepharose beads and the mixtures were frozen in 200 μl aliquots. The amount of protein bound to the beads was quantitated using a colormetric assay (BCA assay; Pierce-Endogen).
Uba3 and AppBP1 were in vitro translated and ^35S-methionine labeled using 0.5 μg of the respective expression plasmids in a 50 μl reaction using TNT® Coupled Reticulocyte Lysate Systems (Promega) by following the manufacturer's instructions. […]

293T cells = assay: Uba3 co-transfection with SPATIAL-EGFP, growth arrest; assay type: cell-based, human; settings: transient over expression, 0.5, 2.5 or 4.5 μg/well Uba3 plasmid, FIG. 9
Procedure: To determine whether Uba3 is involved in SPATIAL mediated growth suppression, co-transfections were done using increasing amounts of an Uba3 expression vector with constant amounts of SPATIAL-EGFP or EGFP.
4×10^5 293T cells were transfected in 6 well plates using 5 μg of a mixture of plasmids. The plasmids used were pEGFP-N1 (0.5 μg/well), pEGFP-SPATIAL(L) (0.5 μg/well), pcDNA3.1 Myc/his M Uba3 (0.5, 2.5 or 4.5 μg/well) (pcDNA3.1 myc/His may be obtained from Invitrogen), and pWL-neo (4 or 2 μg/well). The plasmid pWL-neo (Stratagene) was used as a control plasmid to make sure that the total DNA in each transfection totaled 5 μg. Transfections were done using Lipofectamine 2000 using manufacturers instructions (Invitrogen).
Twenty four hours after transfection, the cells were trypsinized and re-plated onto 10 cm dishes and cultured for up to 6 days. The number of EGFP-positive cells were determine at 24, 36 and 144 hours after transfection by harvesting the cells, counting and FACS analysis to determine the percentage of EGFP-positive cells.

GST-SPATIAL(L) = target: T2, GST-SPATIAL(L) (Mus musculus, UniProt Q7TSD4); assay: GST pulldown assay with GST-SPATIAL long isoform; assay type: binding; settings: 35S-methionine labeled in vitro translated protein
T2 construct: made in house
T2 sequence (Q7TSD4 with tags, fused parts or gaps isoform Q7TSD4-6 limits assumed): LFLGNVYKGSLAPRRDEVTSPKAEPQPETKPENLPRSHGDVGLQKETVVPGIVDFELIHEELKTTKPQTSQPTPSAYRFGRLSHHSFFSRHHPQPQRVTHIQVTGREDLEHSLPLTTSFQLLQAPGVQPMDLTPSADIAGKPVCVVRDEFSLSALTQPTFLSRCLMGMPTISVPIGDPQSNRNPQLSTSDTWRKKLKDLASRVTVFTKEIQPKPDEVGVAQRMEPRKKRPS
Procedure: Eighteen cDNA clones identified in the yeast two-hybrid system were tested in an in vitro glutathione-S-transferase (GST) pulldown assay, as described in Ausubel et al., Current Protocols in Molecular Biology, Greene Publishing Associates, updated November 2003, Chapter 20, Analysis of Protein Interactions, Unit 20.2, Affinity Purification of Proteins Binding to GST Fusion Proteins.
Briefly, a GST-SPATIAL fusion construct was produced by cloning SPATIAL cDNA(s) into pGEx5X1 expression vector using standard molecular cloning techniques. GST or GST-SPATIAL fusion protein were expressed in 1-1000 ml bacterial cultures grown for 3-4 hours until OD600 reached 0.5. Then, plasmid expression was induced for 1.5-4 hours by the addition of ITPG to a final concentration of 0.11 mM. GST or GST-fusion proteins were purified using glutathione-Sepharose beads as described in Ausubel et al., Current Protocols in Molecular Biology, Greene Publishing Associates, updated November 2003, Chapter 20, Analysis of Protein Interactions, Unit 20.2, Affinity Purification of Proteins Binding to GST Fusion Proteins.
A coupled in vitro transcription and translation system (Promega) was used according to the manufacturer's instructions to produce radiolabeled protein from cDNAs to be tested. Radiolabeled proteins were mixed with either purified GST or GST-SPATIAL. Then, GST-containing protein complexes were purified by centrifugation from the reaction mixtures using glutathione-coated Sepharose beads. Bound proteins were eluted from the beads with SDS-PAGE loading buffer heated to 72-85° C., separated on polyacrylamide gels, and visualized by autoradiography. Specific interactions between GST-SPATIAL and in vitro translated proteins were indicated by the presence of a radiolabeled in vitro translated protein in the GST-SPATIAL-containing samples, but not in the GST-alone samples.
GST pulldown assays were performed as described in Example 9 using GST-SPATIAL(L) and GST-SPATIAL(S) and each of the Uba3 mutants described in this example.

B1: GST-SPATIAL: glutathione-S-transferase SPATIAL fusion protein (protein)
chain: T2 sequence (Q7TSD4 with tags, fused parts or gaps isoform Q7TSD4-6 limits assumed)
modifications: left off: a dimerising Fc or GST
notes: glutathione-S-transferase SPATIAL fusion protein
How did the “effect on Uba3 binding to AppBP1” value [1] turn out when B1 was run?
Its value is “interferes with Uba3 binding to AppBP1”.

B2: Uba3: catalytic subunit of NEDD8 activating enzyme, a 441-amino acid protein (SEQ ID NO: 6) (protein, listed as Mus musculus)
chain: T1 sequence (Q8C878 22-462 V120X/V142X/I148X/P243X limits assumed)
modifications: (99)..(99) The ′Xaa′ at location 99 stands for Val.; (121)..(121) The ′Xaa′ at location 121 stands for Val.; (127)..(127) The ′Xaa′ at location 127 stands for Ile.; (222)..(222) The ′Xaa′ at location 222 stands for Pro.
What does the source list for B2?
effect on growth inhibition of SPATIAL-EGFP transfected cells (293T cells): overcomes the growth inhibition; interaction with GST-SPATIAL(L) (GST-SPATIAL(L)): specifically bound
